Experimental data taken from publication doi:10.1101/685867 (bioRxiv, 2020).

Target: T1, S0_2.126 (synthetic construct (de novo design))
T1 chain: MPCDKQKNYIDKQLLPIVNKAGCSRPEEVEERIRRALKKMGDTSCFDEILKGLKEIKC
Experiment: SPR

B1: D25 IgG (antibody, V domains shown)
VH: QVQLVQSGAEVKKPGSSVMVSCQASGGPLRNYIINWLRQAPGQGPEWMGGIIPVLGTVHYAPKFQGRVTITADESTDTAYIHLISLRSEDTAMYYCATETALVVSTTYLPHYFDNWGQGTLVTVSS
VL: DIQMTQSPSSLSAAVGDRVTITCQASQDIVNYLNWYQQKPGKAPKLLIYVASNLETGVPSRFSGSGSGTDFSLTISSLQPEDVATYYCQQYDNLPLTFGGGTKVEIK
In the case of B1, the Kd is reported as roughly 0.05 nM.
